Test results reported in patent US20020086017, “GA binding protein and neurite derived growth factors for use in the treatment of muscular dystrophy” (published 2002).

What was measured:
[1] = tested on: GABP-alpha + GABP-beta1 co-expressed in L6 cells (Homo sapiens); test: cell_activity; conditions: luciferase reporter in L6 cells, n=24, p<0.001
[2] = target: GABP-alpha/GABP-beta1 heterodimer (Homo sapiens, UniProt Q06546;Q06547 Q06546:1-454,Q06547:2-395); test: EMSA; enhanced relative to GABP-alpha alone, multimeric complexes; 20 mM HEPES pH 7.6, 1 mM MgCl2, 40 mM KCl, on ice; conditions: tags: GST fusions (pGEX), reconstituted in vitro; label: 32P 5'-end
Description: (§1) Nuclear extracts were prepared from dishes of L6 myotubes cultured to confluence and total proteins quantified, as previously described [Ausubel F et al; Current Protocols in Molecular Biology; Wiley, N.Y., 1995]. The double stranded UtroNBox probe used was 5′ATCTTCcggaa C 3′ (SEQ ID NO: 7) (N-box underlined, ets-domain italicised and lower case) which was end-labelled with g-P³² ATP using T4 Polynucleotide kinase. Typically, radiolabelled probe (1 ng c. 10-100,000 cpm) was incubated on ice for 20 minutes with 10 μg nuclear extracts or 1 μl GST fusion proteins in a 12.5 μL reaction buffer containing 20 mM HEPES pH 7.6, 1 mM MgCl₂, 0.1 mM EGTA, 40 mM KCl, 10% Glycerol, 1 μg ssDNA. Competition with cold probe was performed with pre-incubation with 1000× excess of unlabelled UtroNBox probe. Complexes were resolved by electrophoresis at 200 V for 2 Hours on 4% Acrylamide gels in 25 mM Tris, 192 mM Glycine, 1 mM EDTA (for nuclear extracts) and 12.5 mM Tris, 96 mM Glycine, 0.5 mM EDTA (for fusion proteins) prior to autoradiographic analysis using a Storm Phosphorimager (Molecular Dynamics, Sunnyvale, Calif.).
(§2) Electrophoretic mobility shift assay was performed with the radiolabelled oligonucleotide UtroNBox probe and purified GABP-α and GABP-β fusion proteins. […]

GABP-beta1 = GABP-beta1 (Homo sapiens, UniProt Q06547 Q06547:2-395); test: EMSA; GABP-beta alone; 20 mM HEPES pH 7.6, 1 mM MgCl2, 40 mM KCl, on ice; conditions: tags: GST fusion (pGEX); label: 32P 5'-end
Description: as §1, §2

GABP-alpha = target: T1, GABP-alpha (Homo sapiens, UniProt Q06546 Q06546:1-454); test: EMSA; competed by 1000x unlabelled probe; 20 mM HEPES pH 7.6, 1 mM MgCl2, 40 mM KCl, on ice; conditions: tags: GST fusion (pGEX); label: 32P 5'-end
T1 sequence: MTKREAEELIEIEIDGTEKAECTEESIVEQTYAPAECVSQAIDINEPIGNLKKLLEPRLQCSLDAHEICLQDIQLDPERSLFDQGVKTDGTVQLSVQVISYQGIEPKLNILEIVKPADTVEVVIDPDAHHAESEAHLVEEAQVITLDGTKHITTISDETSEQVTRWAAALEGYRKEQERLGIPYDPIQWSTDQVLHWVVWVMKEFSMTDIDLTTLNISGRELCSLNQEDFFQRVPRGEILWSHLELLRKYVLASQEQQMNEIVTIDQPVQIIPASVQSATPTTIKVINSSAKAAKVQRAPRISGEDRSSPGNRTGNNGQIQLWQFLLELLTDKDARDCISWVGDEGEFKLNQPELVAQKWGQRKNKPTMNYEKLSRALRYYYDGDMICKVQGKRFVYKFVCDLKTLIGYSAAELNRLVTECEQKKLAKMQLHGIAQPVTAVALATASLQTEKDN
Description: as §1, §2

Sequence of GABP-beta1 (Q06547 2-395, one chain of several): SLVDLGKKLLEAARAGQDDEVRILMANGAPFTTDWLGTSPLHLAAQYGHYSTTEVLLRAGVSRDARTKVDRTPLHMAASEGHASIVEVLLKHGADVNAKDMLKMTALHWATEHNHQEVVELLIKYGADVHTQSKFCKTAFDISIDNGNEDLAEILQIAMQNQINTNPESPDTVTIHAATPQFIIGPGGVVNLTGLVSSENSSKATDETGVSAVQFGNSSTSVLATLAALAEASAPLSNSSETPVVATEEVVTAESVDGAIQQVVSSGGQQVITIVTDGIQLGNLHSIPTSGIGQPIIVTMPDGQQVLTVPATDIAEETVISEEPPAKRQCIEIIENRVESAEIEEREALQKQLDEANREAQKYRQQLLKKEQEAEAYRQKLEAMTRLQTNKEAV
Sequence of GABP-alpha/GABP-beta1 heterodimer (Q06547 2-395, one chain of several): as above

human utrophin promoter in pPUBF luciferase reporter
activity [1]: 238 % of control

B1: UtroNBox probe (dsDNA)
DNA 1: ATCTTCCGGAAC
DNA 2: GTTCCGGAAGAT
binding result [2]: binds | binding result (GABP-beta1): no binding | binding result (GABP-alpha): binds
